According to patent US20120100140A1:

What was measured:
CD64 (FcγRI) [1] = biological target: CD64 (FcγRI) (UniProt P12314); assay: solution affinity SPR: antibody titrated into CD64, inhibition of CD64 binding to immobilized IgG1 MAb; average of two titrations
CD16 (FcγRIIIa V158) [2] = biological target: CD16 (FcγRIIIa V158) (UniProt P08637); assay: solution affinity SPR: inhibition of CD16 binding to immobilized IgG1 MAb
CD64 (FcγRI) [3] = biological target: CD64 (FcγRI) (UniProt P12314); assay: solution affinity SPR: inhibition of CD64 binding to immobilized IgG1 MAb
CD32a = CD32a (UniProt P12318); assay: solution affinity SPR: inhibition of CD32a binding to immobilized IgG1 MAb
Chain of CD32a (P12318 34-217 limits assumed): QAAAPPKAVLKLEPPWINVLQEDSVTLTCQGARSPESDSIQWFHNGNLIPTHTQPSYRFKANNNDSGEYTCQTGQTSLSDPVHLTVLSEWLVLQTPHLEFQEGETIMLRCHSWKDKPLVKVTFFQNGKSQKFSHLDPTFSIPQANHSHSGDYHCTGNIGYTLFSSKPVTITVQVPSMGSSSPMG

CD16 (FcγRIIIa V158) [4] = biological target: CD16 (FcγRIIIa V158) (UniProt P08637); assay: solution affinity SPR: antibody titrated into CD16, inhibition of CD16 binding to immobilized IgG1 MAb; average of two titrations

Chain of CD16 (FcγRIIIa V158) (P08637 17-208 F176V limits assumed): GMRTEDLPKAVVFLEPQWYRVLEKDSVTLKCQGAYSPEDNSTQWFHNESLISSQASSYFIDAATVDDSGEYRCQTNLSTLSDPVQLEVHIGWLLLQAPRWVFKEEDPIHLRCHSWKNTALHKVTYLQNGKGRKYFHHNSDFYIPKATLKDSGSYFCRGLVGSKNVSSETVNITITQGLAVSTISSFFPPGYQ
Chain of CD64 (FcγRI) (P12314 16-288 limits assumed): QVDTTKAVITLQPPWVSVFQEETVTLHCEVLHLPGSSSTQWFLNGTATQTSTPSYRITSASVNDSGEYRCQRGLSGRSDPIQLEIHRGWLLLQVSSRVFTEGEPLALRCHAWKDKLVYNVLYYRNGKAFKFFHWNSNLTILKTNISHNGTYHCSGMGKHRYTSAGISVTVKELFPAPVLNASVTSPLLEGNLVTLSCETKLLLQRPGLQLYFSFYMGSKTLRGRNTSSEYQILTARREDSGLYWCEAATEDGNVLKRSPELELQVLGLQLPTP

IC50 (CD16 (FcγRIIIa V158) [2]) [µM]	IC50 (CD64 (FcγRI) [3]) [µM]	Substance	also measured
1320		CN578 (hu5c8 aglycosylated IgG1 T299K) (antibody)	IC50 (CD64 (FcγRI) [1]): 1420 µM
	586	EAG2377 (hu5c8 aglycosylated IgG1 T299N) (antibody)	
	5970	EAG2378 (hu5c8 aglycosylated IgG1 T299R) (antibody)	
	196	EAG2379 (hu5c8 aglycosylated IgG1 T299E) (antibody)	IC50 (CD32a): 1280 µM
	345	EAG2380 (hu5c8 aglycosylated IgG1 T299F) (antibody)	
	455	EAG2389 (hu5c8 aglycosylated IgG1 T299Q) (antibody)	
	392	EAG2390 (hu5c8 aglycosylated IgG1 T299P) (antibody)	
1320		EAG2476 (YC406-Fc; agly IgG4-Fc T299K, T307P, L309K, D399S, no Fab) (from UniProt P01861 99-325)	
6000		EAG2478 (CN578-Fc; agly IgG1 Fc T299K, no Fab) (from UniProt P0DOX5 218-448)	
		IgG1 T299A (hu5c8 aglycosylated IgG1) (antibody)	IC50 (CD64 (FcγRI) [1]): 205 µM
105		IgG1 control antibody (hu5c8 wild-type glycosylated IgG1)	IC50 (CD64 (FcγRI) [1]): 9.64 µM; IC50 (CD16 (FcγRIIIa V158) [4]): 100 µM
